Results on 83 variants are retold here after the RNAGym collection of RNA variant scans (doi:10.1021/acssynbio.7b00057).

The labels stand for the following.
B1: Pistol ribozyme (parent)
chain: GGGUCGUUGUUCCAUAAUCGCGUGGAUAUGGCACGCAAGUUUCUACCGGGCACCGUAAAUGUCCGACUGGAGCCGUUCGGGCGGCUAUAAACAGACCUCAGGCCCGAAGCGUGGCGGCACCUGCCGCCGGUGGUAAAAAAGAUCGGAAGAGCACACGUCU

In this data set the parent is B1. Description: aptazyme ON/OFF ratio, guanine; higher = stronger switching; co-transcriptional cleavage with and without guanine.
Turning to U7A U8A U10C U11A C12U C13A, the “aptazyme ON/OFF ratio” value was determined as 1.16.
The figure for U7A U8C G9A U10A C13A is 1.22; for U7A U8C G9A U10A C13U it is 1.2; for U7A U8C G9A U10A C13G it is 1.07.
In the case of U7A U8C G9A U10C U11C, the “aptazyme ON/OFF ratio” value is 1.08.
Then U7A U8C G9A U10C U11A, with 1.24; and U7A U8A U11A C12U, with 1.31; and U7A U8A U11A C12A, with 1.44.
Then U7A U8A U11A C12G, with 1.2.
The figure for U7A U8A U10C is 3.05; for U7A U8A U10G it is 1.52.
Turning to U7A U8A U10G U11G C12U C13G, the “aptazyme ON/OFF ratio” value was found to be 1.26.
The figure for U7A U8A U10G U11G C12U C13A is 1.23.
The figure for U7A U8A U10G U11G C12U C13U is 1.27.
Then U7A U8C G9A C12A C13A, with 1.18; and U7A U8C G9A C12A C13U, with 1.16; and U7A U8C G9A C12A C13G, with 1.14.
U7A U8C G9A U10A U11C C12G: the “aptazyme ON/OFF ratio” value came to 1.21.
Take U7A U8C G9A U10A U11C C12A: the “aptazyme ON/OFF ratio” value came to 1.15.
The figure for U7A U8C G9A U10A U11C C12U is 1.09; for U7A U8A U10C U11C C12A it is 1.17; for U7A U8A U10C U11C C12G it is 1.2.
The figure for U7A U8A U10C U11C C12U is 1.07; for U7A U8C G9A C12U C13U it is 1.1; for U7A U8C G9A C12U C13A it is 1.07.
The figure for U7A U8C G9A C12U C13G is 1.09; for U7A U8C G9A U10A U11A C13U it is 1.18.
Regarding U7A U8C G9A U10A U11A C13G, the “aptazyme ON/OFF ratio” value stood at 1.12.
The figure for U7A U8C G9A U10A U11A C13A is 1.35; for U7A U8A U11A C13G it is 1.09; for U7A U8A U11A C13A it is 1.11.
Then U7A U8A U11A C13U, with 1.11; and U7A U8C C13G, with 1.16.
Consider U7A U8C C13A, for which the “aptazyme ON/OFF ratio” value is 1.26.
The figure for U7A U8C C13U is 1.51; for U7A U8A U10A U11G C13U it is 1.26; for U7A U8A U10A U11G C13G it is 1.28.
Then U7A U8A U10A U11G C13A, with 1.16; and U7A U8C G9A U10C C12U C13U, with 1.26; and U7A U8C G9A U10C C12U C13G, with 1.1.
Then U7A U8C G9A U10C C12U C13A, with 1.17; and U7A U8A U10C U11A C12G, with 1.19; and U7A U8A U10C U11A C12U, with 1.14.
On to U7A U8A U10C U11A C12A, for which the “aptazyme ON/OFF ratio” value was found to be 1.24.
The figure for U7A U8A U10C U11G C12G C13U is 1.19; for U7A U8A U10C U11G C12G C13A it is 1.17.
Then U7A U8A U10C U11G C12G C13G, with 1.18; and U7A U8A U10G U11C C12G C13A, with 1.23; and U7A U8A U10G U11C C12G C13G, with 1.11.
Then U7A U8A U10G U11C C12G C13U, with 1.39.
On to U7A U8C G9A U10A U11C C12G C13U, for which the “aptazyme ON/OFF ratio” value came to 1.2.
The figure for U7A U8C G9A U10A U11C C12G C13G is 1.17.
The figure for U7A U8C G9A U10A U11C C12G C13A is 1.09; for U7A U8A U11G C12G C13A it is 1.1.
The figure for U7A U8A U11G C12G C13U is 1.46; for U7A U8A U11G C12G C13G it is 1.24.
U7A U8C G9A U10C C12G C13U: the “aptazyme ON/OFF ratio” value is 1.23.
The figure for U7A U8C G9A U10C C12G C13A is 1.12.
Regarding U7A U8C G9A U10C C12G C13G, the “aptazyme ON/OFF ratio” value was 1.16.
The figure for U7A U8A U10A U11G is 1.17; for U7A U8A U10G C12A C13U it is 1.19; for U7A U8A U10G C12A C13A it is 1.21.
The figure for U7A U8A U10G C12A C13G is 1.06; for U7A U8A U10G C12A it is 1.33.
Regarding U7A U8A U10G C12G, the “aptazyme ON/OFF ratio” value was 1.43.
The figure for U7A U8A U10G C12U is 1.35.
The figure for U7A U8A U10C U11C C12A C13A is 1.06.
As to U7A U8A U10C U11C C12A C13U, the “aptazyme ON/OFF ratio” value worked out at 1.12.
The figure for U7A U8A U10C U11C C12A C13G is 1.09; for U7A U8C G9A U10C U11A C13G it is 1.17.
The figure for U7A U8C G9A U10C U11A C13U is 1.28; for U7A U8C G9A U10C U11A C13A it is 1.18.
The figure for U7A U8A U10C U11G C12A C13A is 1.12; for U7A U8A U10C U11G C12A C13G it is 1.16; for U7A U8A U10C U11G C12A C13U it is 1.12.
Consider U7A U8A U10C C13A, for which the “aptazyme ON/OFF ratio” value turned out to be 1.11.
Then U7A U8A U10C C13U, with 1.98.
For U7A U8A U10C C13G, the “aptazyme ON/OFF ratio” value was determined as 1.09.
U7A U8C G9A U10A U11G C13U: the “aptazyme ON/OFF ratio” value worked out at 1.17.
Take U7A U8C G9A U10A U11G C13G: the “aptazyme ON/OFF ratio” value was 1.12.
Then U7A U8C G9A U10A U11G C13A, with 1.12; and U7A U8A U10C C12U C13G, with 1.07.
Then U7A U8A U10C C12U C13A, with 1.05.
